The target of experiment [1] is T1, Fc tagged human TNFR2 (Sino Biological) (human, UniProt P20333 23-257).
T1 construct: Bought reagent; also called hTNFR2; hTNFR2-Fc; not shown: Fc tag of the bought protein
T1 sequence (looked up): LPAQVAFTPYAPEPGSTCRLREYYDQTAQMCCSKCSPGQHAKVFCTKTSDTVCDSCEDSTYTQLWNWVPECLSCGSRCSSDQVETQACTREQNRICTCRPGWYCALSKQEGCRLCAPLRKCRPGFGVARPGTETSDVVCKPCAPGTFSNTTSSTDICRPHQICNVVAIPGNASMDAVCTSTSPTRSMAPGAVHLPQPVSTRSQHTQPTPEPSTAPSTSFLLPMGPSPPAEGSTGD
The experiment is described as follows: SPR, Biacore single cycle kinetics, stability study, after 1 year at -80° C. On the procedure: (§1) Due to the limit in the number of available flow cells for analysis (three Fc per analysis, Fc2, Fc3 and Fc4, with Fc1 always being used as blank reference for non-specific subtraction), receptor binding was assessed in two separate overlapping runs using either: hTNFR1 (Fc2), hTNFR2 (Fc3) and mTNFR1 (Fc4), or; hTNFR1 (Fc2), […] and mTNFR2 (Fc4). Receptors were diluted in running buffer to a concentration of ˜4 μg/mL and at the start of each cycle loaded onto Fc2, Fc3 and Fc4 of a Protein A chip (GE Healthcare, Little Chalfont, UK) at a flow rate of 10 μL/min to give an RU of 40-100. The surface was then allowed to stabilise. Single cycle kinetic data was obtained at a flow rate of 45 μL/min. […] The association phase for the three injections of increasing concentrations of TNF was monitored for 240 seconds and a single dissociation phase was measured for 2700 seconds following the last injection of TNF. Regeneration of the Protein A surface was conducted using 10 mM glycine-HCl pH 1.5. The signal from the reference channel Fc1 (no receptor) was subtracted from that of Fc2, Fc3 and Fc4 to correct for differences in non-specific binding to a reference surface.
(§2) At day zero (prior to freezing) and following thawing on ice after 3 months and 1 year the following assays were performed: [0341] SDS-PAGE [0342] OD280 nm [0343] Single cycle Biacore for binding to hTNFR1, hTNFR2 and mTNFR1

Experiment [2] deals with T2, Fc tagged mouse TNFR1 (Sino Biological) (mouse, UniProt P25118 22-212, limits assumed).
T2 construct: Bought reagent; also called mTNFR1; mTNFR1-Fc; not shown: Fc tag of the bought protein
T2 sequence (looked up): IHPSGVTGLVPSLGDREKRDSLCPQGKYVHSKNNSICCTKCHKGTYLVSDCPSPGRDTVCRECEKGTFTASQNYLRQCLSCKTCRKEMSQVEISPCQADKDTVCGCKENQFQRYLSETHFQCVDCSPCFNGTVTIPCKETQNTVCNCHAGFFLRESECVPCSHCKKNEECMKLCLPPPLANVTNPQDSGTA
The experiment is described as above. On the procedure: as §1, §2

Experiment [3] deals with T3, Fc tagged human TNFR1 (Sino Biological) (human, UniProt P19438 22-211, limits assumed).
T3 construct: Bought reagent; also called hTNFR1; hTNFR1-Fc; not shown: Fc tag of the bought protein
T3 sequence (looked up): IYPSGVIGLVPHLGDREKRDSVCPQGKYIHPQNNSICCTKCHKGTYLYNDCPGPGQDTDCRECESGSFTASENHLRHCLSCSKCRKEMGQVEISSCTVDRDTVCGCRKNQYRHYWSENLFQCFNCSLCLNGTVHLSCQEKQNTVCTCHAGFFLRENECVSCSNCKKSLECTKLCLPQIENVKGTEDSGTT
The description is as above. The method, then: as §1, §2

In experiment [4] the target is T4, Fc tagged mouse TNFR2 (Sino Biological) (mouse, UniProt P25119 23-258).
T4 construct: Bought reagent; also called mTNFR2; mTNF2; not shown: Fc tag of the bought protein
T4 sequence (looked up): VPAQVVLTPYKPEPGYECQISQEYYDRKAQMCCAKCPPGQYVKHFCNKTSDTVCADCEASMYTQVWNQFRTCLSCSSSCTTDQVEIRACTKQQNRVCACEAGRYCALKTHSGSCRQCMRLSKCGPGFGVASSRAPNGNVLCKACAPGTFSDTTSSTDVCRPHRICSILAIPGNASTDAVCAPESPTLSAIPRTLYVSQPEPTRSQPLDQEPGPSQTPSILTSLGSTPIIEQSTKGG
The experiment can be described thus: SPR (Biacore T200) single cycle kinetics, Fc-tagged receptor captured on Protein A chip, TNF protein as analyte at 1.67-15 nM. On the procedure:
Single cycle kinetic analysis was performed using a Biacore T200 (serial no. 1909913) running Biacore T200 Evaluation Software V2.0.1 (Uppsala, Sweden). All experiments were run at 25° C. with HBS-P+ running buffer (pH 7.4) (GE Healthcare, Little Chalfont, UK).
as §1
Controls were used to ensure the integrity of the receptors during the Biacore run.

Experiment [5] deals with T1, Fc tagged human TNFR2 (Sino Biological). The experiment is described as follows: SPR, Biacore single cycle kinetics, stability study, after 1 year at -20° C. The method, then:
as §1, §2
(Surface plasmon resonance follows binding to a sensor surface in real time, without labels.)

In experiment [6] the target is T2, Fc tagged mouse TNFR1 (Sino Biological). Described as above. On the procedure:
as §1, §2

The target of experiment [7] is T3, Fc tagged human TNFR1 (Sino Biological). Described as above. The method, then:
as §1, §2

B1: TNF mutein B2 (ligand)
chain: VRSSSRTPSDKPVAHVVANPQAEGQLQWLNRRANALLANGVELRDNQLVVPSEGLYLIYSQVLFKGQGCPSTHVLLTHTISRITASYSGKVNLLSAIKSPCQRETPEGAEAKPWYEPIYLGGVFQLEKGDRLSAEINRPDYLDFAESGQVYFGIIAL
notes: Human TNF mutein, TASYSG at positions 84-89; not shown: C-terminal FLAG tag and His6 tag from vector pANT65
On to B1, for which the Kd – broadly, the concentration at which binding is half-saturated – was 0.349 nM in experiment [1]; 0.0864 nM in experiment [2]; 0.0407 nM in experiment [3]; 0.21 nM in experiment [5]; 0.0851 nM in experiment [6]; 0.039 nM in experiment [7]. Moreover, the binding result in experiment [4] is “no binding (tested: 15 nM)”.

These data come from US20220387557A1 (OXFORD UNIVERSITY INNOVATION, published 2022).
